Read-outs that look alike come from different tables or passages of the source.
What was measured:
[1] = target: SARS-CoV-2 Spike RBD-His Tag, Sino Biological (SARS-CoV-2)
[2] = target: SARS-CoV-2 Spike RBD-His Tag, Sino Biological (SARS-CoV-2); remark: listed apart in the source
[3] = target: SARS-CoV-2 Spike RBD-His Tag, Sino Biological (SARS-CoV-2); remark: listed apart in the source
[4] = target: SARS-CoV-2 Spike RBD-His Tag, Sino Biological (SARS-CoV-2); remark: listed apart in the source
[5] = target: SARS-CoV-2 Spike RBD-His Tag, Sino Biological (SARS-CoV-2); remark: listed apart in the source
[6] = target: SARS-CoV-2 Spike RBD-His Tag, Sino Biological (SARS-CoV-2); remark: listed apart in the source
[7] = target: SARS-CoV-2 Spike RBD-His Tag, Sino Biological (SARS-CoV-2); remark: listed apart in the source
[8] = target: SARS-CoV-2 Spike RBD-His Tag, Sino Biological (SARS-CoV-2); remark: listed apart in the source
[9] = target: SARS-CoV-2 Spike RBD-His Tag, Sino Biological (SARS-CoV-2); remark: listed apart in the source
[10] = target: SARS-CoV-2 Spike RBD-His Tag, Sino Biological (SARS-CoV-2); remark: listed apart in the source
CoV-2 (SARS-CoV-2) [11] = target: CoV-2 (SARS-CoV-2)
CoV-2 (SARS-CoV-2) [12] = target: CoV-2 (SARS-CoV-2); remark: listed apart in the source
CoV-2 (SARS-CoV-2) [13] = target: CoV-2 (SARS-CoV-2); remark: listed apart in the source
[14] = target: SARS-CoV-2 Spike RBD-His Tag, Sino Biological (SARS-CoV-2); remark: listed apart in the source
CoV-2 (SARS-CoV-2) [15] = target: CoV-2 (SARS-CoV-2); remark: listed apart in the source
[16] = target: SARS-CoV-2 Spike RBD-His Tag, Sino Biological (SARS-CoV-2); remark: listed apart in the source
CoV-2 (SARS-CoV-2) [17] = target: CoV-2 (SARS-CoV-2); remark: listed apart in the source

B1: vhh_tstrep_sars2_pjl1_L_85 (VHH)
VHH: QVQLQESGGGLVQAGGSLRLSCAASGRTFSEYAMGWFRQAPGKEREFVATISWSGGATYYTDSVKGRFTISRDNAKNTVYLQMNSLKPDDTAVYYCAAAGLETVVSEWDYDYDYWGQGTQVTVSS
xmid (log10) [1]: -1.05
xmid (log10) [2]: -0.815

B2: vhh_tstrep_sars2_pjl1_L_119 (VHH)
VHH: QVQLQESGGGLVQAGGSLRLSCAASGRTFSEYAMGWFRQAPGKEREFVATESWSGGATYHTDSVKGRFTISRDNAKNTVYLQMNSLKPDDTAVYYCAAAGLGTVVSEWDYDYDYWGQGTQVTVSS
xmid (log10) [3]: 0.39
xmid (log10) [4]: 0.385

B3: vhh_tstrep_sars2_pjl1_L_133 (VHH)
VHH: QVQLQESGGGLVQAGGSLRLSCAASGRTFSEYAMGWFRQAPGKEREFVATISWSGGATYHTDSVKGRFTISRDNAKNTVYLQMNSLKPDDTAVYYCAAAGLGTVVSEWDYDYDSWGQGTQVTVSS
xmid (log10) [5]: -1.46
xmid (log10) [6]: -1.7

B4: vhh_tstrep_sars2_pjl1_L_126 (VHH)
VHH: QVQLQESGGGLVQAGGSLRLSCAASGRTFSEYAMGWFRQAPGKEREFVATISWSGGASYHTDSVKGRFTISRDNAKNTVYLQMNSLKPDDTAVYYCAAAGLGTVVSEWDYDYDYWGQGTQVTVSS
xmid (log10) [7]: 0.489
xmid (log10) [8]: -0.398

B5: vhh_tstrep_sars2_pjl1_L_116 (VHH)
VHH: QVQLQESGGGLVQAGGSLRLSCAASGRTFSEYAMGWFRQAPGKEREFVASISWSGGATYHTDSVKGRFTISRDNAKNTVYLQMNSLKPDDTAVYYCAAAGLGTVVSEWDYDYDYWGQGTQVTVSS
xmid (log10) [3]: 0.288
xmid (log10) [9]: -0.0157

B6: vhh_tstrep_sars2_pjl1_L_128 (VHH)
VHH: QVQLQESGGGLVQAGGSLRLSCAASGRTFSEYAMGWFRQAPGKEREFVATISPSGGATYHTDSVKGRFTISRDNAKNTVYLQMNSLKPDDTAVYYCAAAGLGTVVSEWDYDYDYWGQGTQVTVSS
xmid (log10) [10]: -0.2
xmid (log10) [7]: 0.384

B7: vhh_tstrep_sars2_pjl1_L_129 (VHH)
VHH: QVQLQESGGGLVQAGGSLRLSCAASGRTFSEYAMGWFRQAPGKEREFVATISWSGGATYHTTSVKGRFTISRDNAKNTVYLQMNSLKPDDTAVYYCAAAGLGTVVSEWDYDYDYWGQGTQVTVSS
xmid (log10) [10]: -1.34
xmid (log10) [4]: -1.34

B8: vhh_tstrep_sars2_pjl1_L_121 (VHH)
VHH: QVQLQESGGGLVQAGGSLRLSCAASGRTFSEYAMGWFRQAPGKEREFVATISWSGWATYHTDSVKGRFTISRDNAKNTVYLQMNSLKPDDTAVYYCAAAGLGTVVSEWDYDYDYWGQGTQVTVSS
xmid (log10) [8]: -0.645
xmid (log10) [4]: -0.224

B9: vhh_tstrep_sars2_pjl1_L_81 (VHH)
VHH: QVQLQESGGGLVQAGGSLRLSCAASGRTFSEYAMGWFRQAPGKEREFVATISWSGGATYYTDSVKGRFTISRDNAKNTVYLQMNSLKPDDTAVYYCAAARLGTVVSEWDYDYDYWGQGTQVTVSS
xmid (log10) [1]: 0.479
xmid (log10) [2]: 1.06

B10: vhh_tstrep_sars2_pjl1_L_38 (VHH)
VHH: QVQLQESGGGLVQAGGSLRLSCAASGRTFSEYAMGWFRQAPGKEREFVATISWSGGSTYYTDSVKGRFTISRDNAKNTVYLQMNSLKPDDTAVYYCAAAGLGTVVSEWAYDYDYWGQGTQVTVSS
xmid (log10) (CoV-2 (SARS-CoV-2) [11]): 0.854
xmid (log10) (CoV-2 (SARS-CoV-2) [12]): 0.0417
xmid (log10) (CoV-2 (SARS-CoV-2) [13]): -0.286

B11: vhh_tstrep_sars2_pjl1_L_125 (VHH)
VHH: QVQLQESGGGLVQAGGSLRLSCAASGRTFSEYAMGWFRQAPGKEREFVATISWSGGATYHTDSVKGRFTISRDNAKNTVYLQMNSLKPDDTAVYYCAAAGLRTVVSEWDYDYDYWGQGTQVTVSS
xmid (log10) [3]: 0.108
xmid (log10) [5]: 0.297

B12: vhh_tstrep_sars2_pjl1_L_46 (VHH)
VHH: QVQLQESGGGLVQAGGSLRLSCAASGRTFSEYAMGWFRQAPGKEREFVATISWSGGSTYYTDSVKGRFTISRDNAKNTVYLQMNSLKPDDTAVYYCAAAGLGTVVSEADYDYDYWGQGTQVTVSS
xmid (log10) (CoV-2 (SARS-CoV-2) [13]): 1.65

B13: vhh_tstrep_sars2_pjl1_L_120 (VHH)
VHH: QVQLQESGGGLVQAGGSLRLSCAASGRTFSEYAMGWFRQAPGKEREFVATISWSGGATYHTDSVDGRFTISRDNAKNTVYLQMNSLKPDDTAVYYCAAAGLGTVVSEWDYDYDYWGQGTQVTVSS
xmid (log10) [3]: -0.0348
xmid (log10) [9]: -0.493

B14: vhh_tstrep_sars2_pjl1_L_118 (VHH)
VHH: QVQLQESGGGLVQAGGSLRLSCAASGRTFSEYAMGWFRQAPGKEREFVATISWSGGATGHTDSVKGRFTISRDNAKNTVYLQMNSLKPDDTAVYYCAAAGLGTVVSEWDYDYDYWGQGTQVTVSS
xmid (log10) [8]: 0.412
xmid (log10) [4]: 0.784

B15: vhh_tstrep_sars2_pjl1_L_135 (VHH)
VHH: QVQLQESGGGLVQAGGSLRLSCAASGRTFSEYAMGWFRQAPGKEREFVATISWSGGATYHTDSVKGRFTISRDNAKNTVYLQMNSLKPDDTAVYYCAAAGLWTVVSEWDYDYDYWGQGTQVTVSS
xmid (log10) [7]: -1.5
xmid (log10) [6]: -1.65

B16: vhh_tstrep_sars2_pjl1_L_82 (VHH)
VHH: QVQLQESGGGLVQAGGSLRLSCAASGRTFSEYAMGWFRQAPGKEREFVATISWSGGATYYTDSVKGRFTISRDNAKNTVYLQMNSLKPDDTAVYYCAAAELGTVVSEWDYDYDYWGQGTQVTVSS
xmid (log10) [1]: 0.155
xmid (log10) [2]: 0.109

B17: vhh_tstrep_sars2_pjl1_L_117 (VHH)
VHH: QVQLQESGGGLVQAGGSLRLSCAASGRTFSEYAMGWFRQAPGKEREFVATISWSGGATYHTWSVKGRFTISRDNAKNTVYLQMNSLKPDDTAVYYCAAAGLGTVVSEWDYDYDYWGQGTQVTVSS
xmid (log10) [14]: -1.5
xmid (log10) [4]: -1.7

B18: vhh_tstrep_sars2_pjl1_L_32 (VHH)
VHH: QVQLQESGGGLVQAGGSLRLSCAASGRTFSEYAMGWFRQAPGKEREFVATISWSGGSTYYTDSVKGRFTISRDNAKNTVYLQMNSLKPDDTAVYYCAAAGLGTVVSAWDYDYDYWGQGTQVTVSS
xmid (log10) (CoV-2 (SARS-CoV-2) [11]): 0.532
xmid (log10) (CoV-2 (SARS-CoV-2) [12]): 0.239
xmid (log10) (CoV-2 (SARS-CoV-2) [15]): -0.271

B19: vhh_tstrep_sars2_pjl1_L_137 (VHH)
VHH: QVQLQESGGGLVQAGGSLRLSCAASGRTFSEYAMGWFRQAPGKEREFVATISWSGGATYHTDSVKGRFTISRDNAKNTVYLQMNSLKPDDTAVYYCAAAGLGTVVSAWDYDYDYWGQGTQVTVSS
xmid (log10) [16]: -0.676
xmid (log10) [6]: -1.3

B20: vhh_tstrep_sars2_pjl1_L_24 (VHH)
VHH: QVQLQESGGGLVQAGGSLRLSCAASGRTFSEYAMGWFRQAPGKEREFVATISWSGGSTAYTDSVKGRFTISRDNAKNTVYLQMNSLKPDDTAVYYCAAAGLGTVVSEWDYDYDYWGQGTQVTVSS
xmid (log10) (CoV-2 (SARS-CoV-2) [11]): 0.908
xmid (log10) (CoV-2 (SARS-CoV-2) [17]): 0.515
xmid (log10) (CoV-2 (SARS-CoV-2) [15]): 0.582

B21: vhh_tstrep_sars2_pjl1_L_127 (VHH)
VHH: QVQLQESGGGLVQAGGSLRLSCAASGRTFSEYAMGWFRQAPGKEREFVATISWSGGAAYHTDSVKGRFTISRDNAKNTVYLQMNSLKPDDTAVYYCAAAGLGTVVSEWDYDYDYWGQGTQVTVSS
xmid (log10) [8]: -0.006
xmid (log10) [4]: 0.479

B22: vhh_tstrep_sars2_pjl1_L_132 (VHH)
VHH: QVQLQESGGGLVQAGGSLRLSCAASGRTFSEYAMGWFRQAPGKEREFVATISWGGGATYHTDSVKGRFTISRDNAKNTVYLQMNSLKPDDTAVYYCAAAGLGTVVSEWDYDYDYWGQGTQVTVSS
xmid (log10) [16]: 0.0703
xmid (log10) [6]: -0.157

B23: vhh_tstrep_sars2_pjl1_L_124 (VHH)
VHH: QVQLQESGGGLVQAGGSLRLSCAASGRTFSEYAMGWFRQAPGKEREFVATISWSGGGTYHTDSVKGRFTISRDNAKNTVYLQMNSLKPDDTAVYYCAAAGLGTVVSEWDYDYDYWGQGTQVTVSS
xmid (log10) [5]: -1.84
xmid (log10) [8]: -1.89

B24: vhh_tstrep_sars2_pjl1_L_40 (VHH)
VHH: QVQLQESGGGLVQAGGSLRLSCAASGRTFSEYAMGWFRQAPGKEREFVATISWSGGSTYYTASVKGRFTISRDNAKNTVYLQMNSLKPDDTAVYYCAAAGLGTVVSEWDYDYDYWGQGTQVTVSS
xmid (log10) (CoV-2 (SARS-CoV-2) [17]): 0.226
xmid (log10) (CoV-2 (SARS-CoV-2) [13]): -0.664

B25: vhh_tstrep_sars2_pjl1_L_123 (VHH)
VHH: QVQLQESGGGLVQAGGSLRLSCAASGRTFSEYAMGWFRQAPGKEREFVATISWIGGATYHTDSVKGRFTISRDNAKNTVYLQMNSLKPDDTAVYYCAAAGLGTVVSEWDYDYDYWGQGTQVTVSS
xmid (log10) [7]: 0.9
xmid (log10) [6]: 0.157

B26: vhh_tstrep_sars2_pjl1_L_130 (VHH)
VHH: QVQLQESGGGLVQAGGSLRLSCAASGRTFSEYAMGWFRQAPGKEREFVATISWSGGATYHTDSVKARFTISRDNAKNTVYLQMNSLKPDDTAVYYCAAAGLGTVVSEWDYDYDYWGQGTQVTVSS
xmid (log10) [10]: -0.532
xmid (log10) [7]: 0.204

B27: vhh_tstrep_sars2_pjl1_L_22 (VHH)
VHH: QVQLQESGGGLVQAGGSLRLSCAASGRTFSEYAMGWFRQAPGKEREFVATISASGGSTYYTDSVKGRFTISRDNAKNTVYLQMNSLKPDDTAVYYCAAAGLGTVVSEWDYDYDYWGQGTQVTVSS
xmid (log10) (CoV-2 (SARS-CoV-2) [11]): 0.892
xmid (log10) (CoV-2 (SARS-CoV-2) [12]): 1.08
xmid (log10) (CoV-2 (SARS-CoV-2) [15]): 0.688

Source: US20240059759A1
